Key:
[1] = target: LgBiT-p62 (Homo sapiens (Human)) (UniProt Q13501); experiment: NanoBiT split-luciferase complementation in HeLa cells co-transfected with pLgBiT-p62 and pSmBiT-DDX5; 10 uM FBnG for 24 h; luminescence 10 min after start of measurement
[2] = target: LgBiT-p62 (Homo sapiens (Human)) (UniProt Q13501); experiment: NanoBiT split-luciferase complementation in HeLa cells co-transfected with pLgBiT-p62 and pSmBiT-DDX5; 10 uM AUTAC2-2G for 12 h; luminescence 10 min after start of measurement
[3] = target: LgBiT-p62 (Homo sapiens (Human)) (UniProt Q13501); experiment: NanoBiT split-luciferase complementation in HeLa cells co-transfected with pLgBiT-p62 and pSmBiT-DDX5; 10 uM AUTAC4-2G for 12 h; luminescence 10 min after start of measurement
[4] = target: LgBiT-p62 (Homo sapiens (Human)) (UniProt Q13501); experiment: NanoBiT split-luciferase complementation in HeLa cells co-transfected with pLgBiT-p62 and pSmBiT-DDX5; 10 uM 8-nitro-cGMP for 24 h; luminescence 10 min after start of measurement
[5] = target: LgBiT-p62 (Homo sapiens (Human)) (UniProt Q13501); experiment: NanoBiT split-luciferase complementation in HeLa cells co-transfected with pLgBiT-p62 and pSmBiT-DDX5; each of compounds 5 to 33 at 10 uM for 24 h; luminescence 10 min after start of measurement

Measured: emission intensity relative to cells treated with DMSO (times (fold over DMSO-treated cells))

Sequence of SmBiT-DDX5 (P17844 whole entry): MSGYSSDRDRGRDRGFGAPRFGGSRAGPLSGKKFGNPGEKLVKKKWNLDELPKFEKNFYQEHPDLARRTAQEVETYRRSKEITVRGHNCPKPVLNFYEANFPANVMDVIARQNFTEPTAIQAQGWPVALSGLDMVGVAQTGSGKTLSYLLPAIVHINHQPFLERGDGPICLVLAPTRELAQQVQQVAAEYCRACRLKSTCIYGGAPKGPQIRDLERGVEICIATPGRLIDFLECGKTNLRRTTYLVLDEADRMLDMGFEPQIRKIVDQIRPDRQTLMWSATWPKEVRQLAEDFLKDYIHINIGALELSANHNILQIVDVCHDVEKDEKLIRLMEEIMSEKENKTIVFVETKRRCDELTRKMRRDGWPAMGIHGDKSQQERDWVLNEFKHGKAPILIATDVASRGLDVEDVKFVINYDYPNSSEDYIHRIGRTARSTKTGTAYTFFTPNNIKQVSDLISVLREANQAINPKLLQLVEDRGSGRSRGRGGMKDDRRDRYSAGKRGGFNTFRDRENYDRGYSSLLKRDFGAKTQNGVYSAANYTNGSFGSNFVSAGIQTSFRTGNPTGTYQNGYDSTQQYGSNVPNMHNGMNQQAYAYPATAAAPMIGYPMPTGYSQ

SmBiT-DDX5 (from UniProt P17844 1-614) (enzyme)
> 1000: all assays above
